Laboratory results from publication PMC2807175.

Substrate: OC[C@H]1O[C@@](CO)(O[C@H]2O[C@H](CO)[C@@H](O)[C@H](O)[C@H]2O)[C@@H](O)[C@@H]1O
Experiment: cells, lysate or membranes
Conditions: pH 5.6, Na Ringer, membrane potential -117 mV, H+ symport

Protein | K0.5
OsSUT5 (Oryza sativa Japonica Group) (protein) MEEGRRGDREGKSAAGWTALSTTKTTLEEKRRLQANGSVGGDAGTSGFRRIVRLFFACMVAGGIQYGWALQLSLLSPYSQTLGISHSYVSLTWICGPIAGFVVQPIVGYYSDRCTMKMGRRRPFILVGCLIICISVMIIGFSADIGRHLGDTKEHCSTYTGPRWSAAMVYIVGFWFLDFANNTVQGPARAMMADLSAGHHGPNVGQSIFSLWMAIGSVLGYLSGANGKWHEWFPWLKTAACCDACANLKGAFFTAVLLIVVSMTVTMYLADEMPLDKQDVDTSGGGGCAVFVDLFKSLRNLPPAMFKVLAVTAVTWLSWFPFIQYNTDWMGREIYHGEPQGTAAKADVYDAGVREGAMGLLFCSVALGVTSFVIPKLCRRLTSKVVWSISNFLVFALMAVMVAVGMVSMRGYRPSLAAGLTGPDPTLKAVALVVFALIGIPQAVLFSVPWAVASEVTAEEGGGQGLAIGVLNIAIVVPQLVIALTAGPIDGAFNKGNTPAFGIGGAFAFICGVLALIWLPKTRGVSNAAVVAGGH | 2.32 mM
OsSUT1 (Oryza sativa Japonica Group) (protein) MARGSGAGGGGGGGGGGLELSVGVGGGGGARGGGGGEAAAAVETAAPISLGRLILSGMVAGGVQYGWALQLSLLTPYVQTLGLSHALTSFMWLCGPIAGMVVQPCVGLYSDRCTSKWGRRRPYILTGCVLICLAVVVIGFSADIGYAMGDTKEDCSVYHGSRWHAAIVYVLGFWLLDFSNNTVQGPARALMADLSGRHGPGTANSIFCSWMAMGNILGYSSGSTNNWHKWFPFLKTRACCEACANLKGAFLVAVIFLSLCLVITLIFAKEVPFKGNAALPTKSNEPAEPEGTGPLAVLKGFRNLPTGMPSVLIVTGLTWLSWFPFILYDTDWMGREIYHGDPKGTDPQIEAFNQGVRAGAFGLLLNSIVLGFSSFLIEPMCRKVGPRVVWVTSNFLVCIAMAATALISFWSLKDFHGTVQKAITADKSIKAVCLVLFAFLGVPLAVLYSVPFAVTAQLAATRGGGQGLCTGVLNISIVIPQVVIALGAGPWDELFGKGNIPAFGLASGFALIGGVAGIFLLPKISKRQFRSVSMGGGH | 7.50 mM
